Experimental data taken from paper PMC7948472.
Read-outs that look alike come from different tables or passages of the source. Where no end group is shown, it is not given here. Me3 = trimethyl-lysine

Experiments:
[1] = target: Fab E10 (rabbit); assay: SPR; Biacore T200; each Fab immobilised on a CM5 chip by amine coupling; peptides injected at increasing concentrations; running buffer PBS with 0.005% Tween 20; global fitting of the curves, or steady-state analysis where kinetic parameters could not be determined (fast dissociation, low affinity)
[2] = target: Fab E10 (rabbit); assay: as above; remark: listed apart in the source
[3] = target: Fab E6 (rabbit); assay: as above
Chain of Fab E6 (rabbit) (heavy, as listed by the source, chain 1 of 2): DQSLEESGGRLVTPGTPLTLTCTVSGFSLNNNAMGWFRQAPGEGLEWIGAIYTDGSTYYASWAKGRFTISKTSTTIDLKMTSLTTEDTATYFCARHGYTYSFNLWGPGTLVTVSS
Chain of Fab E6 (rabbit) (light, as listed by the source, chain 2 of 2): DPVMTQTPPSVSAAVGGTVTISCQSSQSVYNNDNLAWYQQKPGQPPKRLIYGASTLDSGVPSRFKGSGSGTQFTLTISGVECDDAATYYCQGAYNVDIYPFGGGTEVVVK

[4] = target: Fab F9 (rabbit); assay: as above
Chain of Fab F9 (rabbit) (heavy, as listed by the source, chain 1 of 2): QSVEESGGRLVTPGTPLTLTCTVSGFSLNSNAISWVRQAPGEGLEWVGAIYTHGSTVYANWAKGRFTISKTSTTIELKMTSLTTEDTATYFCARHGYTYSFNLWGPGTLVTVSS
Chain of Fab F9 (rabbit) (light, as listed by the source, chain 2 of 2): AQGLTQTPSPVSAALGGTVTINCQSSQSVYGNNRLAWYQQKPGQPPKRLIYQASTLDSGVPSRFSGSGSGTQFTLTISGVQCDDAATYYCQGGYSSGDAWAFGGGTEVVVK

[5] = target: Fab D6 (rabbit); assay: as above
Chain of Fab D6 (rabbit) (heavy, as listed by the source, chain 1 of 2): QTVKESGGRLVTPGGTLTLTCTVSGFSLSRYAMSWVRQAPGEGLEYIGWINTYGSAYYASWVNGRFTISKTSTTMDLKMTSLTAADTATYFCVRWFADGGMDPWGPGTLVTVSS
Chain of Fab D6 (rabbit) (light, as listed by the source, chain 2 of 2): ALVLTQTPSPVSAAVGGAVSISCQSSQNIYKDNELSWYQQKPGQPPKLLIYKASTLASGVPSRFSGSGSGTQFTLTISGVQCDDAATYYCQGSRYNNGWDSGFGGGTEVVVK

[6] = target: Fab C9 (rabbit); assay: as above
Chain of Fab C9 (rabbit) (heavy, as listed by the source, chain 1 of 2): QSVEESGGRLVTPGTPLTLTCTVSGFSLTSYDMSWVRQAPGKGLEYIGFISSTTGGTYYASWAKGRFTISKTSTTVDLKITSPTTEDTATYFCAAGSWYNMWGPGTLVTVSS
Chain of Fab C9 (rabbit) (light, as listed by the source, chain 2 of 2): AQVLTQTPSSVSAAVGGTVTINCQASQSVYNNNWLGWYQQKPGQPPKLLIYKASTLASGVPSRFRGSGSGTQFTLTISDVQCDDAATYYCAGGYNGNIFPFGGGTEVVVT

[7] = target: D6 Fab (rabbit); assay: SPR; Biacore T200; each Fab immobilised on a CM5 chip by amine coupling; increasing concentrations of free peptide injected; running buffer PBS with 0.005% Tween 20; global fit, steady-state analysis where dissociation was fast
[8] = target: E6 Fab (rabbit); assay: as above
[9] = target: C9 Fab (rabbit); assay: as above
[10] = target: F9 Fab (rabbit); assay: as above
[11] = target: Fab D6 (rabbit); assay: SPR; Biacore T200; each Fab immobilised on a CM5 chip by amine coupling; peptides injected at increasing concentrations; running buffer PBS with 0.005% Tween 20; global fitting of the curves, or steady-state analysis where kinetic parameters could not be determined (fast dissociation, low affinity); remark: listed apart in the source
[12] = target: Fab C9 (rabbit); assay: as above; remark: listed apart in the source
[13] = target: F9, C9, E6, and D6; assay: SPR; Biacore T200; each Fab immobilised on a CM5 chip by amine coupling; increasing concentrations of free peptide injected; running buffer PBS with 0.005% Tween 20; global fit, steady-state analysis where dissociation was fast

Row | Kd [1] [µM] | Kd [2] [µM] | koff [3] [s⁻¹] | kon [3] [M⁻¹ s⁻¹] | koff [4] [s⁻¹] | kon [4] [M⁻¹ s⁻¹] | koff [5] [s⁻¹] | kon [5] [M⁻¹ s⁻¹] | koff [6] [s⁻¹] | kon [6] [M⁻¹ s⁻¹] | Kd [7] [µM] | Kd [8] [µM] | fold difference in association rate constant against F9 [8] [fold] | Kd [9] [µM] | Kd [10] [µM] | Kd [11] [µM] | Kd [12] [µM] | Kd [5] [µM] | Kd [6] [µM] | Kd [13] [µM] | Binder
1 | 39 | 37 | 0.0029 | 3.4e+06 | 0.098 | 330000 | 0.096 | 1.9e+06 | 0.006 | 480000 | 0.054 | 0.0009 | > 100 | 0.014 | 0.3 |  |  |  |  |  | NPIFEKFGK(Me3)GGTYP [Methylated MAP3K2 peptide, …(me3)GGTYP]
2 | 36 | 40 |  |  |  |  |  |  |  |  |  |  |  |  |  | 180 | 690 | 140 | 440 | 0.3 | NPIFEKFGKGGTYP [MAP3K2 peptide, …]
3 |  |  |  |  |  |  |  |  |  |  |  |  |  |  |  |  |  | 0.0591 | 0.0111 |  | NPIFEKFGK(Me3)GGTYP-NH2 [Methylated MAP3K2 peptide in which the C terminus was amidated]
